Assay results from patent US7642244 (Hoffmann-La Roche, dated 2010).
Starred links: 1 amine or outer side, 2 acyl side, 3 side chain; linkers in the order of their positions; H or OH if unused. Non-standard residues stand in square brackets, D forms with d. Primed or numbered codes have the meaning given here. *: point of attachment. Pqa = 4-oxo-6-(1-piperazinyl)-3(4H)-quinazoline-acetic acid, O=C(Cn1cnc2ccc(N3CCN([*:1])CC3)cc2c1=O)[*:2]; Adamantane1carbonyl = O=C(C12CC3CC(CC(C3)C1)C2)*; PEG30,000 SSA″ = PEG-CH2CH2NHCOCH2CH2CO-; PEG30,000 SPA = (PEG-30,000)CH2CH2CO; NMeR = CN[C@@H](CCCNC(=N)N)C(=O)O

T1: Y5R
T1 sequence (Q15761 whole entry, species assumed, looked up): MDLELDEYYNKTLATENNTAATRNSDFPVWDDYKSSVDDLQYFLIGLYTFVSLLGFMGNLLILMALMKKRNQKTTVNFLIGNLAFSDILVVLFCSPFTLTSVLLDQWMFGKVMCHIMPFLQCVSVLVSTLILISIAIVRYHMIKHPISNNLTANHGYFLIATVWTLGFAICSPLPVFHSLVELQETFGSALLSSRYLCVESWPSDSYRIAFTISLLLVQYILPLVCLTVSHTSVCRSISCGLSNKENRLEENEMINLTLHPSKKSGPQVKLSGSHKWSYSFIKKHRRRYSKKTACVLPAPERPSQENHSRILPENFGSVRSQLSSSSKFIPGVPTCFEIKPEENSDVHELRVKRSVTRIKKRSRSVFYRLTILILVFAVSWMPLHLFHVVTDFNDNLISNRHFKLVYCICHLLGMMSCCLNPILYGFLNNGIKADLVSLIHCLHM

T2: human NPY2 receptor (human, UniProt P49146 1-381)
T2 sequence (looked up): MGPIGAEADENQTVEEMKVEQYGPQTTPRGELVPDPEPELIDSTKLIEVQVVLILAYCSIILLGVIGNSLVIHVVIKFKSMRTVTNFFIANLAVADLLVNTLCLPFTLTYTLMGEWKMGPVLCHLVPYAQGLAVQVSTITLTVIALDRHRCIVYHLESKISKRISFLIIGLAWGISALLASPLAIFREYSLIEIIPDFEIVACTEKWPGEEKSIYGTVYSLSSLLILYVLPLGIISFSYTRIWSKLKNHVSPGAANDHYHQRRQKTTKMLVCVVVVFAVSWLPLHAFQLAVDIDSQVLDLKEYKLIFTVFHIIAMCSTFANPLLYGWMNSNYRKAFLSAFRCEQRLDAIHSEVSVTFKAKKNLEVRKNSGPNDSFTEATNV

B1: H-Ile-Lys-Pqa-Arg-His-Tyr-Leu-Asn-Leu-Val-Thr-Arg-Gln-NMe)Arg-Trp-NH2 (peptide)
peptide: IKXRHYLNLVTRQRW
HELM: PEPTIDE1{I.K.[O=C(Cn1cnc2ccc(N3CCN([*:1])CC3)cc2c1=O)[*:2]].R.H.Y.L.N.L.V.T.R.Q.[meR].W.[am]}$$$$V2.0
SMILES: CC[C@H](C)[C@H](N)C(=O)N[C@@H](CCCCN)C(=O)N1CCN(c2ccc3ncn(CC(=O)N[C@@H](CCCNC(=N)N)C(=O)N[C@@H](Cc4c[nH]cn4)C(=O)N[C@@H](Cc4ccc(O)cc4)C(=O)N[C@@H](CC(C)C)C(=O)N[C@@H](CC(N)=O)C(=O)N[C@@H](CC(C)C)C(=O)N[C@H](C(=O)N[C@H](C(=O)N[C@@H](CCCNC(=N)N)C(=O)N[C@@H](CCC(N)=O)C(=O)N(C)[C@@H](CCCNC(=N)N)C(=O)N[C@@H](Cc4c[nH]c5ccccc45)C(N)=O)[C@@H](C)O)C(C)C)c(=O)c3c2)CC1

biological target: T1, Y5R; experiment: cell-based or functional assay

Binder	Y5R EC50 (nM) FLIPR
B1	> 5000 nM
Adamantane1carbonyl-IK[Pqa]RHYLNWVTRQ[NMeR]Y-NH2 [Adamantoyl-Ile-Lys-Pqa-Arg-His-Tyr-Leu-Asn-Trp-Val-Thr-Arg-Gln-(NMe)Arg-Tyr-NH2]	> 5000 nM
Ac-IK(PEG30,000 SPA)[Pqa]RHYLNWVTRQ[NMeR]Y-NH2 [Ac-Ile(PEG-30,000)CH2CH2CO(ε)Lys-Pqa-Arg-His-Tyr-Leu-Asn-Trp-Val-Thr-Arg-Gln-(NMe)Arg-Tyr-NH2]	> 5000 nM
Ac-IK(PEG30,000 SSA″)[Pqa]RHYLNWVTRQ[NMeR]Y-NH2	> 5000 nM

biological target: T2, human NPY2 receptor; experiment: cell-based or functional assay

Binder	Y2R EC50 (nM) FLIPR	Y2R EC50 (nM) cAMP
B1	0.454 nM	1.06 nM
Adamantane1carbonyl-IK[Pqa]RHYLNWVTRQ[NMeR]Y-NH2 [Adamantoyl-Ile-Lys-Pqa-Arg-His-Tyr-Leu-Asn-Trp-Val-Thr-Arg-Gln-(NMe)Arg-Tyr-NH2]	2.33 nM	2.9 nM
Ac-IK(PEG30,000 SPA)[Pqa]RHYLNWVTRQ[NMeR]Y-NH2 [Ac-Ile(PEG-30,000)CH2CH2CO(ε)Lys-Pqa-Arg-His-Tyr-Leu-Asn-Trp-Val-Thr-Arg-Gln-(NMe)Arg-Tyr-NH2]	549 nM	24.4 nM
Ac-IK(PEG30,000 SSA″)[Pqa]RHYLNWVTRQ[NMeR]Y-NH2	1080 nM	20.7 nM

biological target: Y4R; experiment: cell-based or functional assay

Binder	Y4R EC50 (nM) FLIPR
B1	> 5000 nM
Adamantane1carbonyl-IK[Pqa]RHYLNWVTRQ[NMeR]Y-NH2 [Adamantoyl-Ile-Lys-Pqa-Arg-His-Tyr-Leu-Asn-Trp-Val-Thr-Arg-Gln-(NMe)Arg-Tyr-NH2]	> 5000 nM
Ac-IK(PEG30,000 SPA)[Pqa]RHYLNWVTRQ[NMeR]Y-NH2 [Ac-Ile(PEG-30,000)CH2CH2CO(ε)Lys-Pqa-Arg-His-Tyr-Leu-Asn-Trp-Val-Thr-Arg-Gln-(NMe)Arg-Tyr-NH2]	> 5000 nM
Ac-IK(PEG30,000 SSA″)[Pqa]RHYLNWVTRQ[NMeR]Y-NH2	> 5000 nM

biological target: Y1R; experiment: cell-based or functional assay
Sequence (P25929 whole entry): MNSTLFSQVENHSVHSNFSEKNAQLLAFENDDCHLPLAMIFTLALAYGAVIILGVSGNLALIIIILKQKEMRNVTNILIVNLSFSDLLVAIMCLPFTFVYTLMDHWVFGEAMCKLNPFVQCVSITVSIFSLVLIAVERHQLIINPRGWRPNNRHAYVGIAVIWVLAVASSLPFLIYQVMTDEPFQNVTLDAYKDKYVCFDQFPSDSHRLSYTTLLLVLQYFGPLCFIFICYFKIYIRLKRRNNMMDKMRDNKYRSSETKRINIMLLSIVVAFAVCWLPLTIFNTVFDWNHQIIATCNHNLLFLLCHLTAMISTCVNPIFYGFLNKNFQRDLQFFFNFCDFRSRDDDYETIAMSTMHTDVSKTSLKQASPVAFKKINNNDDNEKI

Binder	Y1R EC50 (nM) FLIPR
B1	> 5000 nM
Adamantane1carbonyl-IK[Pqa]RHYLNWVTRQ[NMeR]Y-NH2 [Adamantoyl-Ile-Lys-Pqa-Arg-His-Tyr-Leu-Asn-Trp-Val-Thr-Arg-Gln-(NMe)Arg-Tyr-NH2]	> 5000 nM
Ac-IK(PEG30,000 SPA)[Pqa]RHYLNWVTRQ[NMeR]Y-NH2 [Ac-Ile(PEG-30,000)CH2CH2CO(ε)Lys-Pqa-Arg-His-Tyr-Leu-Asn-Trp-Val-Thr-Arg-Gln-(NMe)Arg-Tyr-NH2]	> 5000 nM
Ac-IK(PEG30,000 SSA″)[Pqa]RHYLNWVTRQ[NMeR]Y-NH2	> 5000 nM
